Numbered stars: 1 amine (or outer) side, 2 acyl side, 3 side chain; on linkers, the order of the positions; unused ones are H or OH. Bridge positions count the residues as written; N and C are the ends. Square brackets hold non-standard residues; d marks the D form. * marks the point of attachment. Hyp(Bzl) = O-benzyl-hydroxyproline, O=C([C@@H]1C[C@@H](OCc2ccccc2)CN1[*:1])[*:2]; Thr(Bzl) = O-benzyl-threonine, C[C@@H](OCc1ccccc1)[C@H](N[*:1])C(=O)[*:2]; Pro(trans-4-NH2) = O=C([C@@H]1C[C@@H](N[*:3])CN1[*:1])[*:2]; Phe(3-CONH2) = NC(=O)c1cccc(C[C@H](N)C(=O)O)c1; Phe(4-CONH2) = NC(=O)c1ccc(C[C@H](N)C(=O)O)cc1; Met(O2) = CS(=O)(=O)CC[C@H](N)C(=O)O; Hyp = O=C(O)[C@@H]1C[C@@H](O)CN1; Met(O) = CS(=O)CC[C@H](N)C(=O)O; Cit = NC(=O)NCCC[C@H](N)C(=O)O; Orn = NCCC[C@H](N)C(=O)O; Dab = NCC[C@H](N)C(=O)O; Pentanoyl = CCCCC(=O)*

Ki data for 32 molecules are collected here from US20120178701A1 (PALATIN TECHNOLOGIES, published 2012).

B1: Ac-Arg-cyclo(Asp-Asn-D-Phe-Arg-Trp-Lys)-OH (peptide)
peptide: Ac-RDN[dF]RWK-OH
modifications: lactam 2-7
notes: also called peptide No. 56
B2: Ac-Arg-cyclo(Asp-Phe(4-(C(═O)-NH2))-D-Phe-Arg-Trp-Lys)-NH2 (peptide)
peptide: Ac-RD[Phe(4-CONH2)][dF]RWK-NH2
modifications: lactam 2-7
notes: also called peptide No. 50
B3: Ac-Arg-cyclo(Asp-Gln-D-Phe-Arg-Trp-Lys)-OH (peptide)
peptide: Ac-RDQ[dF]RWK-OH
modifications: lactam 2-7
notes: also called peptide No. 57
B4: Ac-Arg-cyclo(Asp-Lys-D-Phe-Arg-Trp-Lys)-NH2 (peptide)
peptide: Ac-RDK[dF]RWK-NH2
modifications: lactam 2-7
notes: also called peptide No. 2
B5: Ac-Arg-cyclo(Asp-Phe-(3-(C(═O)-NH2))-D-Phe-Arg-Trp-Lys)-NH2 (peptide)
peptide: Ac-RD[Phe(3-CONH2)][dF]RWK-NH2
modifications: lactam 2-7
notes: also called peptide No. 49
B6: Ac-Arg-cyclo(Asp-Thr(Bzl)-D-Phe-Arg-Trp-Lys)-NH2 (peptide)
peptide: Ac-RD[Thr(Bzl)][dF]RWK-NH2
modifications: lactam 2-7
notes: also called peptide No. 14
B7: Ac-Arg-cyclo(Asp-Ser-D-Phe-Arg-Trp-Lys)-NH2 (peptide)
peptide: Ac-RDS[dF]RWK-NH2
modifications: lactam 2-7
notes: also called peptide No. 3
B8: Ac-Arg-cyclo(Asp-Met-(O2)-D-Phe-Arg-Trp-Lys)-NH2 (peptide)
peptide: Ac-RD[Met(O2)][dF]RWK-NH2
modifications: lactam 2-7
notes: also called peptide No. 77
B9: Ac-Arg-cyclo(Asp-Lys-D-Phe-Cit-Trp-Lys)-NH2 (peptide)
peptide: Ac-RDK[dF][Cit]WK-NH2
modifications: lactam 2-7
notes: also called peptide No. 116
B10: Arg-cyclo(Orn-His-D-Phe-Arg-Trp-Glu)-NH2 (peptide)
peptide: H-R[Orn]H[dF]RWE-NH2
modifications: lactam 2-7
notes: also called peptide No. 99
B11: Ac-Arg-cyclo(Asp-His-D-Nal 1-Arg-Trp-Lys)-NH2 (peptide)
peptide: RDHXRWK
modifications: N-acetyl; X4 = D-Nal 1 (D-3-(1-naphthyl)alanine); side-chain lactam Asp2-Lys7; C-terminal amide
notes: also called peptide No. 19
B12: Ac-Arg-cyclo(Asp-Hyp-D-Phe-Arg-Trp-Lys)-NH2 (peptide)
peptide: Ac-RD[Hyp][dF]RWK-NH2
modifications: lactam 2-7
notes: also called peptide No. 79
B13: Ac-Arg-cyclo(Glu-His-D-Phe-Arg-Trp-Orn)-OH (peptide)
peptide: Ac-REH[dF]RW[Orn]-OH
modifications: lactam 2-7
notes: also called peptide No. 82
B14: Ac-Arg-cyclo(Lys-Gln-D-Phe-Arg-Trp-Asp)-NH2 (peptide)
peptide: Ac-RKQ[dF]RWD-NH2
modifications: lactam 2-7
notes: also called peptide No. 151
B15: Ac-Arg-cyclo(Orn-His-D-Phe-Arg-Trp-Glu)-NH2 (peptide)
peptide: Ac-R[Orn]H[dF]RWE-NH2
modifications: lactam 2-7
notes: also called peptide No. 75
B16: Ac-Arg-cyclo(Asp-Hyp(Bzl)-D-Phe-Arg-Trp-Lys)-OH (peptide)
peptide: Ac-RD[Hyp(Bzl)][dF]RWK-OH
modifications: lactam 2-7
notes: also called peptide No. 54
B17: Ac-Arg-cyclo(Glu-Orn(Acetyl)-D-Phe-Arg-Trp-Orn)-NH2 (peptide)
peptide: Ac-RE[Orn](Ac)[dF]RW[Orn]-NH2
modifications: lactam 2-7
notes: also called peptide No. 149
B18: Ac-Arg-cyclo(Asp-Pro(4R-NH2)-D-Phe-Arg-Trp-Lys)-NH2 (peptide)
peptide: Ac-RD[Pro(trans-4-NH2)][dF]RWK-NH2
modifications: lactam 2-7
notes: also called peptide No. 80
B19: Ac-Arg-cyclo(hGlu-Gln-D-Phe-Arg-Trp-Dab)-NH2 (peptide)
peptide: RXQFRWX
modifications: N-acetyl; X2 = hGlu; D-Phe 4; X7 = Dab; side-chain lactam hGlu2-Dab7; C-terminal amide
notes: also called peptide No. 147
B20: Ac-Arg-cyclo(hGlu-Met(O2)-D-Phe-Arg-Trp-Dab)-NH2 (peptide)
peptide: RXMFRWX
HELM: PEPTIDE1{[ac].R.[O=C([C@H](CCCC(=O)[*:3])N[*:1])[*:2]].[CS(=O)(=O)CC[C@H](N[*:1])C(=O)[*:2]].[dF].R.W.[Dab].[am]}$PEPTIDE1,PEPTIDE1,3:R3-8:R3$$$V2.0
SMILES: CC(=O)N[C@@H](CCCNC(=N)N)C(=O)N[C@H]1CCCC(=O)NCC[C@@H](C(N)=O)NC(=O)[C@H](Cc2c[nH]c3ccccc23)NC(=O)[C@H](CCCNC(=N)N)NC(=O)[C@@H](Cc2ccccc2)NC(=O)[C@H](CCS(C)(=O)=O)NC1=O
B21: Ac-Arg-cyclo(Glu-Orn-D-Phe-Arg-Trp-Orn)-OH (peptide)
peptide: Ac-RE[Orn][dF]RW[Orn]-OH
modifications: lactam 2-7
notes: also called peptide No. 90
B22: Ac-Gln-cyclo(Asp-Dab-D-Phe-Arg-Trp-Lys)-NH2 (peptide)
peptide: QDXFRWK
HELM: PEPTIDE1{[ac].Q.D.[Dab].[dF].R.W.K.[am]}$PEPTIDE1,PEPTIDE1,3:R3-8:R3$$$V2.0
SMILES: CC(=O)N[C@@H](CCC(N)=O)C(=O)N[C@H]1CC(=O)NCCCC[C@@H](C(N)=O)NC(=O)[C@H](Cc2c[nH]c3ccccc23)NC(=O)[C@H](CCCNC(=N)N)NC(=O)[C@@H](Cc2ccccc2)NC(=O)[C@H](CCN)NC1=O
notes: also called peptide No. 142
B23: Ac-Arg-Cyclo(Glu-Pro(4R-NH2)-D-Phe-Arg-Trp-Orn)-NH2 (peptide)
peptide: Ac-RE[Pro(trans-4-NH2)][dF]RW[Orn]-NH2
modifications: lactam 2-7
notes: also called peptide No. 112
B24: Ac-Arg-cyclo(Glu-Asn-D-Phe-Arg-Trp-Orn)-OH (peptide)
peptide: Ac-REN[dF]RW[Orn]-OH
modifications: lactam 2-7
notes: also called peptide No. 91
B25: Ac-Arg-cyclo(Glu-Lys-D-Phe-Arg-Trp-Orn)-NH2 (peptide)
peptide: Ac-REK[dF]RW[Orn]-NH2
modifications: lactam 2-7
B26: Ac-Arg-cyclo(Glu-Met(═O)-D-Phe-Arg-Trp-Orn)-NH2 (peptide)
peptide: Ac-RE[Met(O)][dF]RW[Orn]-NH2
modifications: lactam 2-7
notes: also called peptide No. 111
B27: Ac-Arg-cyclo(Glu-Met(O2)-D-Phe-Arg-Trp-Orn)-NH2 (peptide)
peptide: Ac-RE[Met(O2)][dF]RW[Orn]-NH2
modifications: lactam 2-7
notes: also called peptide No. 100
B28: Ac-Arg-cyclo(Asp-Pro(Bn)-D-Phe-Arg-Trp-Lys)-OH (peptide)
peptide: Ac-RD[Pro(Bn)][dF]RWK-OH
modifications: lactam 2-7
notes: also called peptide No. 55
B29: Ac-Arg-cyclo(Lys-Dab-D-Phe-Arg-Trp-Asp)-NH2 (peptide)
peptide: RKXFRWD
HELM: PEPTIDE1{[ac].R.K.[Dab].[dF].R.W.D.[am]}$PEPTIDE1,PEPTIDE1,3:R3-8:R3$$$V2.0
SMILES: CC(=O)N[C@@H](CCCNC(=N)N)C(=O)N[C@H]1CCCCNC(=O)C[C@@H](C(N)=O)NC(=O)[C@H](Cc2c[nH]c3ccccc23)NC(=O)[C@H](CCCNC(=N)N)NC(=O)[C@@H](Cc2ccccc2)NC(=O)[C@H](CCN)NC1=O
notes: also called peptide No. 121
B30: Ac-Orn-cyclo(Orn-Asn-D-Phe-Arg-Trp-Glu)-NH2 (peptide)
peptide: XXNFRWE
HELM: PEPTIDE1{[ac].[Orn].[Orn].N.[dF].R.W.E.[am]}$PEPTIDE1,PEPTIDE1,3:R3-8:R3$$$V2.0
SMILES: CC(=O)N[C@@H](CCCN)C(=O)N[C@H]1CCCNC(=O)CC[C@@H](C(N)=O)NC(=O)[C@H](Cc2c[nH]c3ccccc23)NC(=O)[C@H](CCCNC(=N)N)NC(=O)[C@@H](Cc2ccccc2)NC(=O)[C@H](CC(N)=O)NC1=O
notes: also called peptide No. 158
B31: Ac-Arg-cyclo(Lys-Dab-D-Phe-Arg-Trp-Asp)-OH (peptide)
peptide: RKXFRWD
HELM: PEPTIDE1{[ac].R.K.[Dab].[dF].R.W.D}$PEPTIDE1,PEPTIDE1,3:R3-8:R3$$$V2.0
SMILES: CC(=O)N[C@@H](CCCNC(=N)N)C(=O)N[C@H]1CCCCNC(=O)C[C@@H](C(=O)O)NC(=O)[C@H](Cc2c[nH]c3ccccc23)NC(=O)[C@H](CCCNC(=N)N)NC(=O)[C@@H](Cc2ccccc2)NC(=O)[C@H](CCN)NC1=O
notes: also called peptide No. 131
B32: n-C4H9-CO-cyclo(Glu-His-D-Phe-Arg-Dab)-Trp-NH2 (peptide)
peptide: Pentanoyl-EH[dF]R[Dab]W-NH2
modifications: lactam 1-5
notes: also called peptide No. 153

In this assay the target is T1, human recombinant melanocortin-4 receptor (human, UniProt P32245 1-332).
T1 construct: whole, on cells; cAMP assays used the whole cells; also called hMC4-R; MC4-R
T1 sequence (P32245 whole entry): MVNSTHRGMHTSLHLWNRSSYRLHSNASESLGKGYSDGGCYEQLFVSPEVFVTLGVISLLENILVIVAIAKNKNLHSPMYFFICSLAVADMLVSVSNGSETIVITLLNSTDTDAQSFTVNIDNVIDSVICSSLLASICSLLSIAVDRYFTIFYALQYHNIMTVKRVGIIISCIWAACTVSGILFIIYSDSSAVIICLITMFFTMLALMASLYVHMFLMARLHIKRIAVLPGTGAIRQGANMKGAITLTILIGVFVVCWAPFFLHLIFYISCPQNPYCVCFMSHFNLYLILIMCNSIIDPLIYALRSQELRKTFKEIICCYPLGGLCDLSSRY
The assay is described as follows: competitive inhibition of [I125]-NDP-α-MSH, hMC4-R HEK-293 membranes. The method, then: A competitive inhibition binding assay is performed using membrane homogenates prepared from HEK-293 cells that express recombinant hMC4-R, hMC3-R, or hMC5-R, and from B-16 mouse melanoma cells (containing endogenous MC1-R). In some instances, HEK-293 cells that express recombinant hMC1-R were employed. In the examples that follow, all MC3-R, MC4-R and MC5-R values are for human recombinant receptors. […] Membrane homogenates were incubated with 0.2 nM (for hMC4-R) 0.4 nM (for MC3-R and MC5-R) or 0.1 nM (for mouse B16 MC1-R or hMC1-R) [I¹²⁵]-NDP-α-MSH (Perkin Elmer) and increasing concentrations of test peptides of the present invention in buffer containing 25 mM HEPES buffer (pH 7.5) with 100 mM NaCl, 2 mM CaCl₂, 2 mM MgCl₂, 0.3 mM 1,10-phenanthroline, and 0.2% bovine serum albumin. After incubation for 60 minutes at 37° C., the assay mixture was filtered and the membranes washed three times with ice-cold buffer. Filters were dried and counted in a gamma counter for bound radioactivity. […] Maximal specific binding (100%) was defined as the difference in radioactivity (cpm) bound to cell membranes in the absence and presence of 1 μM NDP-α-MSH. […] Each assay was conducted in triplicate and the actual mean values are described, with results less than 0% reported as 0%. Ki values for test peptides of the present invention were determined using Graph-Pad Prism® curve-fitting software.
9.1 Peptides of the following structures were synthesized by the general methods described above, and averaged MC4-R Ki values for peptides were determined as indicated. […] Ki values marked “ND” were not determined.
Regarding B1, the Ki turned out to be 100 nM. In the case of B2, the Ki came to 30 nM. To B3 belongs 115 nM; to B4, 30 nM; to B5, 15 nM. With B6, the inhibition constant Ki worked out at 1 nM. For the molecule B7, the Ki came to 172 nM. To B8 belongs 7 nM; to B9, 873 nM. To B10 belongs 6 nM; to B11, 3 nM.

Take B12: the Ki worked out at 4 nM. With B13 the figure was 4 nM; with B14, 4 nM. To B15 belongs 0.6 nM; to B16, 3 nM.

For the molecule B17, the Ki is 7 nM.

Turning to B18, the Ki came to 5 nM. For the molecule B19, the Ki was found to be 20 nM. B20: the Ki stood at 4 nM.

In the case of B21, the Ki is 9 nM.

Consider B22, for which the Ki came to 15 nM.

Take B23: the Ki amounted to 6 nM. To B24 belongs 167 nM; to B25, 15 nM; to B26, 9 nM. On to B27, for which the Ki turned out to be 8 nM. To B28 belongs 12 nM; to B29, 0.4 nM; to B30, 50 nM. With B31 the figure was 35 nM; with B32, 365 nM.

The Ki is the equilibrium dissociation constant of an inhibitor or competing ligand from its target.
